Data set [1] has as its system bovine capillary endothelial cell (BCE). The settings on record: cited from earlier work; for inhibition of BCE proliferation: fragments of recombinant human plasminogen.
Data set [2] deals with human umbilical vein endothelial cell (HUVEC). The format is cell-based. The settings on record: 16 hours. Here is the method:
The K1-3 used in this example has the sequence of SEQ ID NO.2. 2×10^5/ml HUVEC were inoculated in 12-well plates (Corning) and cultured in the M199 medium (Hyclone) containing 20% fetal bovine serum (Hyclone) to exponential phase. After starved for 12 hours, crossed wounds were created in each well. Suspending cells were washed away. Experimental groups were as follows: negative control (PBS), positive control (K1-3 at the concentration of 0.04, 0.4 and 4 μg/ml) and treatment group (K1-3 with PEG at the concentration of 0.04, 0.4 and 4 μg/ml). After culturing for 16 hours at 37° C., the amounts of migrated cells were detected. At the concentration of 0.04-4 μg/ml, the inhibitory effect of cell migration was improved with the increase of protein concentration.

The test system is the same in data set [3]. Kind of data set: trans-well migration of HUVEC. The settings on record: 8 hours. Type of data set: cell-based. Here is the method: The K1-3 used in this example has the sequence of SEQ ID NO.2. HUVECs (Protgen, Beijing) were cultured in the M199 medium (Hyclone) containing 20% fetal bovine serum (Hyclone) to exponential phase. After starved for 12 hours, cells were added into trans-well inserts (Millipore, USA) at the concentration of 10,000 cells per well for measurement of cell migration. Mediums for migration assay included M199 medium with 5% serum. For the treatment groups, K1-3 with or without modification were added to the cells at 0.004, 0.04, 0.4 and 4 μg/ml. After culturing for 8 hours at 37° C., the cells in the trans-well inserts were fixed with 1% glutaraldehyde (Beijing chemical plant, China). […] The migrated cell number was counted under microscope (Olympus). Cells in three different fields in one plate treatment were counted and then the inhibition rate was calculated. At the concentration of 0.04-4 μg/ml, the inhibitory effect of cell migration improves with the increase of protein concentration.

The test system of data set [4] is H22 hepatocellular carcinoma. The data set is described as follows: early-stage H22 hepatocellular carcinoma mice tumor model. Type of data set: in vivo, Balb/c mice. The settings on record: subcutaneous, 3 weeks, tumor weight day 22. The procedure:
K1-3 used in this example is K1-3 having the sequence of SEQ ID NO.2. Experiments were performed to observe the in vive inhibitory activity of K1-3 with PEG coupled to its N-terminus on early-stage H22 tumor. Balb/c mice of about 20 g were used in the experiment (Beijing Vital River Laboratory Animal Co. Ltd.). Mice were inoculated at back with H22 cells, 1×10^6 cells per mouse. The mice were then randomly grouped after the tumor volume reaches 1 cm^3, 8 mice per group, including the negative control group (sodium acetate), the positive control group (K1-3, 4.5 mg/kg body weight, administered daily), three treatment groups (K1-3 with PEG coupled to its N-terminus, 1.5 mg/kg body weight, administered daily, or 4.5 mg/kg body weight, administered daily, twice per week, or weekly, respectively). The administration was performed by subcutaneous injection and lasted for 3 weeks. The mice were sacrificed on day 22, the weight of tumor was measured, and the efficacy was evaluated by tumor inhibition rate. […] Since the in vivo half life of K1-3 with PEG coupled to its N-terminus are longer than that of unmodified K1-3 of the same dosage, the biological activity K1-3 with PEG coupled to its N-terminus is higher than that of the unmodified K1-3 of the same concentration when administration intervals are extended.

The next data set relates to B16 melanoma. The data set is described as follows: late-stage B16 melanoma mice tumor model. The format is in vivo, C57B/L mice. The settings on record: subcutaneous, tumor weight day 11. Here is the method:
K1-3 used in this example is K1-3 having the sequence of SEQ ID NO.2. Experiments were performed to observe the in vivo inhibitory activity of K1-3 with PEG coupled to its N-terminus on late-stage B16 tumor. C57B/L mice of about 20 g were used in the experiment (Beijing Vital River Laboratory Animal Co. Ltd.). Mice were inoculated at back with B16 cells (ATCC#CRL-6475, USA), 1×10^6 cells per mouse. The mice were then randomly grouped after the tumor volume reaches 1 cm^3, 8 mice per group, including the negative control group (sodium acetate), the positive control group (K1-3, 4.5 mg/kg body weight, administered daily), three treatment groups (K1-3 with PEG coupled to its N-terminus, 1.5 mg/kg body weight, administered daily, or 4.5 mg/kg body weight, administered daily, every 3 days, every 6 days, or every 9 days, respectively). Administration was performed by subcutaneous injection and lasted for 10 days. The mice were sacrificed on day 11, the weight of tumor was measured, and the efficacy was evaluated by tumor inhibition rate.

The nature of data set [5]: in vivo half-life of K1-3 with or without PEG modification in Wistar rat. Here is the method: The K1-3 used in this example has the sequence of SEQ ID NO.2. The efficacy of tK1-3 with PEG coupled to its N-terminus was evaluated by measuring the in vivo half-life of K1-3 with or without PEG modification in Wistar rat (Vitalriver Experimental Animal Center), respectively. Two healthy Wistar rat (about 200 g) were injected intraveniously with K1-3 and K1-3 modified with PEG, respectively, at a dose of 4.5 mg/kg body weight. Blood samples were taken from eye sockets of the rats at 0, 5, 10, 30 minutes, 1, 2, 4, 8, 16, 24, 36, 48, 72, 96, 120 and 144 hours. Plasma was then collected and the concentration of K1-3 with or without PEG modification was measured by sandwich ELISA, respectively.

The test system of data set [6] is HeLa (human cervical cancer). The data set is described as follows: proliferation of tumor cells (HeLa), MTT. The format is cell-based. Particulars: 48 hours; for concentration showing the highest anti-proliferation effect on tumor cells: among 0.4, 4, 40 and 150 μg/ml. The procedure: K1-3 used in this example is the K1-3 having the sequence of SEQ ID NO.2. Specifically, HeLa (ATCC#CCL-2, USA) were added into 96-well plates at 20,000 cells per well, then cultured in the DMEM medium (Hyclone) containing 10% serum to exponential phase. After starving for 12 hours, cells were treated with different concentrations of modified or unmodified K1-3 for measurement of cell proliferation. Experimental groups were as follows: negative control group (PBS), positive control groups (0.4, 4, 40, and 150 μg/ml K1-3), and treatment group (0.4, 4, 40, and 150 μg/ml K1-3 with PEG coupled to its N-terminus). After culturing for 48 hours at 37° C., the cells in the plates were treated with MTT for 4 h at 37° C. Then DMSO was added, and the absorption was measured at 570 nm by microplate spectrophotometer.

For another data set, the system named is NCI-H226 NSCLC xenograft. Kind of data set: NCI-H226 NSCLC xenograft model, tumor burden. The format is in vivo, Balb/c nu/nu mice. Particulars: for T/C ratio: PEG-K1-3 4.5 mg/kg i.v., Taxol 20 mg/kg i.v.
Setting [7] is: 4.5 mg/kg body weight daily, 10 days.
[8] abbreviates: Wistar rat, injected intravenously, 4.5 mg/kg body weight, plasma, sandwich ELISA.

Read-outs that look alike come from different tables or passages of the source.

Method for NCI-H226 NSCLC xenograft: Female Balb/c nu/nu mice aged 6-8 weeks of about 18-20 g weight (institute of laboratory animal sciences, CAMS) were used in this experiment. Mice were subcutaneously inoculated on the right side with NCI-H226 cells (human pancreatic cancer cell line, derived from ATCC, ATCC number CRL-5826). When the tumor volume reached about 80-125 mm^3, the animals were divide into 3 groups randomly (6 per group). […] The body weight and tumor volume of the animals were measured twice a week. Sacrifice the animals on day 28, collect the tumors and take photographs.

B1: K2: fragment of recombinant human plasminogen; angiostatin K2, SEQ ID NO:4 (protein, listed as Homo sapiens)
chain: CMHCSGENYDGKISKTMSGLECQAWDSQSPHAHGYIPSKFPNKNLKKNYCRNPDRELRPWCFTTDPNKRWELCDIPRC
Turning to B1, in data set [1], the “inhibition of BCE proliferation” value is “effectively inhibit”.

B2: K1-3: angiostatin fragment K1-3 (fragment of plasminogen), recombinant, sequence of SEQ ID NO.2, expressed in E. coli (protein, listed as Homo sapiens)
chain: MVYLSECKTGNGKNYRGTMSKTKNGITCQKWSSTSPHRPRFSPATHPSEGLEENYCRNPDNDPQGPWCYTTDPEKRYDYCDILECEEECMHCSGENYDGKISKTMSGLECQAWDSQSPHAHGYIPSKFPNKNLKKNYCRNPDRELRPWCFTTDPNKRWELCDIPRCTTPPPSSGPTYQCLKGTGENYRGNVAVTVSGHTCQHWSAQTPHTHNRTPENFPCKNLDENYCRNPDGKRAPWCHTTNSQVRWEYCKIPSCDSSP
Regarding B2, the “inhibition rate on cells migration (wound healing)” value amounted to 0% in data set [2] (0.04 μg/ml), 20% in data set [2] (0.4 μg/ml) and 25% in data set [2] (4 μg/ml). Besides, the figures for the “inhibition rate on cells migration” value in data set [3] (0.04 μg/ml), in data set [3] (0.4 μg/ml) and in data set [3] (4 μg/ml) were 43%, 68% and 76%, respectively. Besides, the tumor inhibition rate is on record as 51% in data set [4] (4.5 mg/kg body weight daily) and 45% in the data set on B16 melanoma (setting [7]). For the same molecule, the “inhibitory effect on cell proliferation compared with angiostatin K1-4” value in data set [1] was “significantly stronger”. Also, the “inhibition of BCE proliferation” value in data set [1] is given as “effectively inhibit”. The half-life (usually how long it takes for the measured level to halve) in data set [5] (setting [8]) is 12.2 h. The “concentration showing the highest anti-proliferation effect on tumor cells” value in data set [6] is 40 µg/mL.

B3: PEG-K1-3: K1-3 having the sequence of SEQ ID NO:2 modified with 20 kDa PEG at the N-terminal α-amino group (conjugate, listed as Homo sapiens)
chain: MVYLSECKTGNGKNYRGTMSKTKNGITCQKWSSTSPHRPRFSPATHPSEGLEENYCRNPDNDPQGPWCYTTDPEKRYDYCDILECEEECMHCSGENYDGKISKTMSGLECQAWDSQSPHAHGYIPSKFPNKNLKKNYCRNPDRELRPWCFTTDPNKRWELCDIPRCTTPPPSSGPTYQCLKGTGENYRGNVAVTVSGHTCQHWSAQTPHTHNRTPENFPCKNLDENYCRNPDGKRAPWCHTTNSQVRWEYCKIPSCDSSP
modifications: 20 kDa PEG at N-terminus
Consider B3, for which the “inhibition rate on cells migration (wound healing)” value in data set [2] (0.04 μg/ml) is 35%; in data set [2] (0.4 μg/ml) it was 40%; in data set [2] (4 μg/ml), 105%. The “tumor burden compared with the control group” value with NCI-H226 NSCLC xenograft (4.5 mg/kg i.v., p<0.05) was “significantly decreased”. In addition, the T/C ratio with NCI-H226 NSCLC xenograft (Day 4) is reported as 73%; with NCI-H226 NSCLC xenograft (Day 11), 63%; in the data set on NCI-H226 NSCLC xenograft (Day 18), 62%; with NCI-H226 NSCLC xenograft (Day 25), 66%. In addition, the tumor inhibition rate in the data set on NCI-H226 NSCLC xenograft (tumor burden 21 days after treatment, vs control group, PEG-K1-3 4.5 mg/kg, Taxol 20 mg/kg) was 17.18%; in data set [4] (1.5 mg/kg body weight daily), 54%; in data set [4] (4.5 mg/kg body weight daily), 60%; in data set [4] (4.5 mg/kg body weight weekly), 50%; in the data set on B16 melanoma (1.5 mg/kg body weight daily, 10 days) it was 28%; in the data set on B16 melanoma (setting [7]), 60%. In addition, the tumor inhibition rate with B16 melanoma (4.5 mg/kg body weight every 3 days) stood at 34%; in the data set with B16 melanoma (4.5 mg/kg body weight every 6 days), 25%; in the data set on B16 melanoma (4.5 mg/kg body weight every 9 days) it was 24%. In addition, the results for the “inhibition rate on cells migration” value in data set [3] (0.04 μg/ml), in data set [3] (0.4 μg/ml) and in data set [3] (4 μg/ml) were 58%, 65% and 69%, respectively. Moreover, the half-life amounted to 81.5 h in data set [5] (setting [8]) and 81.5 h in data set [5] (summary statement, refers to example 4). In addition, in data set [6] (0.4-150 μg/ml), the “inhibition of the tumor cell proliferation compared with unmodified K1-3” value is recorded as “more potent than unmodified K1-3”. In data set [6], the “concentration showing the highest anti-proliferation effect on tumor cells” value was found to be 40 µg/mL.

B4: K1: fragment of recombinant human plasminogen; angiostatin K1, SEQ ID NO:3 (protein, listed as Homo sapiens)
chain: CKTGNGKNYRGTMSKTKNGITCQKWSSTSPHRPRFSPATHPSEGLEENYCRNPDNDPQGPWCYTTDPEKRYDYCDILEC
On to B4, for which the “inhibition of BCE proliferation” value in data set [1] was “effectively inhibit”.

B5: K3: fragment of recombinant human plasminogen; angiostatin K3, SEQ ID NO:5 (protein, listed as Homo sapiens)
chain: CLKGTGENYRGNVAVTVSGHTCQHWSAQTPHTHNRTPENFPCKNLDENYCRNPDGKRAPWCHTTNSQVRWEYCKIPSC
Take B5: the “inhibition of BCE proliferation” value in data set [1] is recorded as “effectively inhibit”.

The values above are taken from patent US20140056966A1, “CONJUGATE ANGIOSTATION OR ITS FRAGMENT, THE METHOD OF PRODUCING THE CONJUGATE AND USE THEREOF” (PROTGEN LTD., priority 2007, published 2014).
